Experimental data: US20230037815A1 (CULLINAN THERAPEUTICS, published 2023)
Positions count from the first letter of the chain named.

What was measured:
human CD19 [1] = biological target: T1, human CD19 (human, UniProt P15391 20-291, biotinylated in the Biacore assay of Table 11); assay: SPR Biacore 8K, captured biotinylated CD19, scFv analyte
T1 construct: also called isolated CD19; Human CD19 Protein
T1 sequence (looked up): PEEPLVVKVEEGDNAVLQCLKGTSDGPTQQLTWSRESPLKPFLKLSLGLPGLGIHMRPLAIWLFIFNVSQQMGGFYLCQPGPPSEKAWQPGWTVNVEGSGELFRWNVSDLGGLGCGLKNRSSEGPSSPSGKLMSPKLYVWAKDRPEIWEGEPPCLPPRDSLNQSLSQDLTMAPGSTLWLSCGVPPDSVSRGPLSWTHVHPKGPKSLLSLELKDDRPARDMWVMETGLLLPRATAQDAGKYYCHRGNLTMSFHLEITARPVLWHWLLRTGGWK
Experimental: (§1) Additional kinetic analysis of the anti-CD19 VL-VH scFvs, with or without a disulfide bond introduced by Cys substitutions at position 44 of VH and position 100 of VL, was conducted by surface plasmon resonance (SPR). The scFv proteins were serially diluted and assessed at 25° C. in a HBS-EP+ running buffer system (10 mM HEPES pH 7.4, 150 mM NaCl, 3 mM EDTA, 0.05% Surfactant P20) using a Biacore 8K optical biosensor (Global Life Sciences Solutions USA, Marlborough, Mass.). The sample compartment was maintained at 10° C. for the duration of each experiment.
(§2) Each experiment cycle began with an injection (500 s at 2 μL/min) over flow cells 1 and 2 of a 1:20 solution of biotin CAPture reagent (Global Life Sciences Solutions USA) in running buffer. This was followed by an injection (300 s at 4.0 μL/min) of biotinylated CD-19 (40 nM) overflow cell 2. Upon capture of CD19 to the sensor surface, test scFvs (16.2 to 0.067 nM, 3-fold dilution in running buffer) was injected (300 s at 30 uL/min) over flow cells 1 and 2. The dissociation of the scFvs was monitored for a duration of 2564 s. Finally, an injection (90 s at 10 μL/min) of regeneration solution (6 M Guanidine-HCl in 0.25 M NaOH) overflow cells 1 and 2 was used to prepare the sensor surface for another cycle.

human CD19 [2] = biological target: T1, human CD19; assay: SPR Biacore 8K, captured biotinylated CD19, scFv with disulfide bond as analyte
Experimental: as §1, §2

human serum albumin = biological target: T2, human serum albumin (human, UniProt P02768 25-609); assay: Octet HTX (ForteBio), HCAb on AHC sensor, 1:1 fit
T2 construct: also called HSA

cynomolgus serum albumin = cynomolgus serum albumin (cynomolgus, UniProt A2V9Z4 25-608); assay: Octet HTX (ForteBio), HCAb on AHC sensor, 1:1 fit
mouse serum albumin [3] = biological target: T3, mouse serum albumin (mouse, UniProt P07724 25-608); assay: Octet HTX (ForteBio), HCAb on AHC sensor, 1:1 fit
T3 construct: also called MSA

protein A = protein A (UniProt P38507 37-327); assay: Octet HTX (ForteBio), HCAb on AHC sensor, 1:1 fit
mouse serum albumin [4] = biological target: T3, mouse serum albumin; assay: ratio of the Octet KD for mouse serum albumin to that for human serum albumin
[5] = biological target: T4, monomeric CD19 extracellular domain (UniProt P15391 20-291, limits assumed); assay: ForteBio instrument (called SPR in the text), monomeric CD19 extracellular domain; monomeric CD19 protein
T4 construct: extracellular domain; also called monomeric CD19 protein
T4 sequence (looked up): T1 sequence (looked up)
Experimental: (§3) As noted above, some of the constructs produced contained an anti-CD19 scFv having the amino acid sequence set forth in SEQ ID NO: 9 or 18. The binding affinity of the two CD19 binding domains to CD19 were measured by SPR using a monomeric CD19 extracellular domain and a dimeric CD19 extracellular domain fused with human IgG1 Fc. Binding kinetic parameters were measured using a ForteBio instrument generally as previously described (see, Estep et al. (2013) MAbs, 5(2): 270-78).

[6] = biological target: T5, dimeric CD19 extracellular domain fused with human IgG1 Fc (human, UniProt P15391 20-291, limits assumed); assay: ForteBio instrument (called SPR in the text), dimeric CD19 extracellular domain-human IgG1 Fc; dimeric CD19 extracellular domain fused with human IgG1 Fc
T5 construct: extracellular domain; also called dimeric CD19 protein; not shown: human IgG1 Fc
T5 sequence (looked up): T1 sequence (looked up)
Experimental: as §3

human CD3 [7] = biological target: human CD3 (human); assay: BLI, Octet method of WO2018208864A1
human CD3 [8] = biological target: human CD3 (human); assay: SPR, BiaCore method of WO2018208864A1

T3 sequence (P07724 25-608 limits assumed): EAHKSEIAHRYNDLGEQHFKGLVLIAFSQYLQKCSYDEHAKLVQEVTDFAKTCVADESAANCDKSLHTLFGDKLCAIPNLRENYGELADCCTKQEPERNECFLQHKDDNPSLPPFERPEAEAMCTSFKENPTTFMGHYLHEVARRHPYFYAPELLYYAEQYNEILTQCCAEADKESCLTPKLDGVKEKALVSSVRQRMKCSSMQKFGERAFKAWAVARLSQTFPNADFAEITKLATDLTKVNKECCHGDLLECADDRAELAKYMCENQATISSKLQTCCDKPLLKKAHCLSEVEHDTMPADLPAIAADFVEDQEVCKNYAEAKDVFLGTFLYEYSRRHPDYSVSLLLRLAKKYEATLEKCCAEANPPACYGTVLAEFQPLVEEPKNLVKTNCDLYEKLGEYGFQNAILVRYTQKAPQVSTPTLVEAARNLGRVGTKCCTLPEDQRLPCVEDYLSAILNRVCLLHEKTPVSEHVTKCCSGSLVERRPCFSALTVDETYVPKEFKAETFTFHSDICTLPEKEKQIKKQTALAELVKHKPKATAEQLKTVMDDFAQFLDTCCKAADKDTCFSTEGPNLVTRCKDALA
Chain of cynomolgus serum albumin (A2V9Z4 25-608 limits assumed): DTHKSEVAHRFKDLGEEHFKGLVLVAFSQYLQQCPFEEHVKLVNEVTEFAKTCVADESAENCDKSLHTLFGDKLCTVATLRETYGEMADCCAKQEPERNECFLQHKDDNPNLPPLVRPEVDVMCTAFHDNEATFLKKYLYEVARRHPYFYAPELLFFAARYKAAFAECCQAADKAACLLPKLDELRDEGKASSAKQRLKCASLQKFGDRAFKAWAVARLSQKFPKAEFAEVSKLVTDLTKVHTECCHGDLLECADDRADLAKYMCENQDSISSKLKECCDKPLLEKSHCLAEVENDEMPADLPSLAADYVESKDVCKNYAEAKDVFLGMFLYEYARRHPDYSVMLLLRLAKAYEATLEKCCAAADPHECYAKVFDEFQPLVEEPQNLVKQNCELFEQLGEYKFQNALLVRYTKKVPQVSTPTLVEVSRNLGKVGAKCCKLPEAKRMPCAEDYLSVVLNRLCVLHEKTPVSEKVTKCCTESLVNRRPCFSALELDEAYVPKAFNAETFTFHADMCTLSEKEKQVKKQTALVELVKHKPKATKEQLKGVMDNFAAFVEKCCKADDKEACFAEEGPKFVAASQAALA
Chain of human CD3 (human) (chain, as listed by the source): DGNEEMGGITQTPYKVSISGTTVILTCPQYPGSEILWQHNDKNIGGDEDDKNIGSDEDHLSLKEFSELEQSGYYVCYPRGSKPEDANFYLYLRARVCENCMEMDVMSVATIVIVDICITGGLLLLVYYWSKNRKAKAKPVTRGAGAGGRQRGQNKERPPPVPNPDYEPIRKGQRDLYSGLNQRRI

B1: CNG-CD19-101 VL-VH scFv (scFv)
scFv: DIVMTQTPLSLSVTPGQPASISCKSSQSLETTTGTTYLNWYLQKPGQSPQLLIYRASKRFSGVPDRFSGSGSGTDFTLKISRVEAEDVGVYYCLQLLEDPYTFGQGTKLEIKGGGGSGGGGSGGGGSQVQLVQSGAEVKKPGASVKVSCKASGYDFTDYIMHWVRQAPGQGLEWMGYINPYNDGSKYTDKFQERVTMTSDTSISTAYMELSRLRSDDTAVYYCARGTYYYGPELFDYWGQGTTVTVSS
notes: scFv without the engineered disulfide
With B1 the Kd (human CD19 [1]) was 0.00673 nM and the koff (human CD19 [1]) was 2e-05 s⁻¹.

B2: CNG-CD19-101 VL-VH scFv with disulfide bond (scFv)
scFv: B1 scFv with Q105C, G171C
notes: Cys at position 44 of VH and 100 of VL already in the entry; also called scFv with Cys substitutions
With B2 the Kd (human CD19 [2]) was 0.0139 nM and the koff (human CD19 [2]) was 4.88e-05 s⁻¹.

B3: CNG-CD19-103 VL-VH scFv (scFv)
scFv: B1 scFv with T32A, A56V, K58R, T102S, D155T, D189E, E193G, E233Q
For B3, the Kd (human CD19 [1]) was 0.00991 nM and the koff (human CD19 [1]) was 2.41e-05 s⁻¹.

B4: CNG-CD19-103 VL-VH scFv with disulfide bond (scFv)
chain: B1 scFv with T32A, A56V, K58R, T102S, Q105C, D155T, G171C, D189E, E193G, E233Q
B4 was tested, and the Kd (human CD19 [2]) was 0.0178 nM and the koff (human CD19 [2]) was 4.85e-05 s⁻¹.

B5: CNG-CD19-707 VL-VH scFv (scFv)
scFv: EIVLTQSPATLSLSPGERATLSCSASSSVGYMHWYQQKPGQAPRLLIYDTSKLASGIPARFSGSGSGTDFTLTISSLEPEDFAVYYCFQGSVYPFTFGQGTKLEIKGGGGSGGGGSGGGGSQVQLQESGPGLVKPSQTLSLTCTVSGGSISTSTMGVGWIRQHPGKGLEWIGFIWWDDDKRYNPNLKSRVTMSVDTSKNQFSLKLSSVTAADTAVYYCARMELWSYYFDPWGQGTLVTVSS
In the case of B5, the Kd (human CD19 [1]) is reported as 0.0122 nM and the koff (human CD19 [1]) is reported as 2e-05 s⁻¹.

B6: CNG-CD19-701 VL-VH scFv (scFv)
scFv: B5 scFv with P230Y
Work on B6 yielded a Kd (human CD19 [1]) of 0.0148 nM and a koff (human CD19 [1]) of 2e-05 s⁻¹.

B7: CNG-CD19-710 VL-VH scFv (scFv)
scFv: B5 scFv with V29F, G30S, G148V, T154S, F173H, I174A, N185A, M192I
B7 was tested, and the Kd (human CD19 [1]) was 0.0218 nM and the koff (human CD19 [1]) was 2e-05 s⁻¹.

B8: CNG-CD19-701 VL-VH scFv with disulfide bond (scFv)
chain: B5 scFv with Q99C, G167C, P230Y
For B8, the Kd (human CD19 [2]) was 0.0141 nM and the koff (human CD19 [2]) was 2e-05 s⁻¹.

B9: CNG-CD19-707 VL-VH scFv with disulfide bond (scFv)
chain: B5 scFv with Q99C, G167C
B9 showed a Kd (human CD19 [2]) of 0.0117 nM and a koff (human CD19 [2]) of 2e-05 s⁻¹.

B10: CNG-CD19-710 VL-VH scFv with disulfide bond (scFv)
chain: B5 scFv with V29F, G30S, Q99C, G148V, T154S, G167C, F173H, I174A, N185A, M192I
B10 was tested, and the Kd (human CD19 [2]) was 0.0213 nM and the koff (human CD19 [2]) was 2.54e-05 s⁻¹.

B11: CNG-HSA-111 (VHH)
VHH: KVQLVESGGGLVQPGGSLRLSCAASGFTFSSFGMSWVRQAPGKGLEWVSSISGSGSDTLYADSVEGRFTISRDNSKNTLYLQMNSLRAEDTAVYYCTIGGSLKQSSQGTLVTVSS
B11 gave a Kd (human serum albumin) of 8.35 nM, a koff (human serum albumin) of 0.00117 s⁻¹ and a Kd (cynomolgus serum albumin) of 6.13 nM. For the same binder, the koff (cynomolgus serum albumin) was 0.000884 s⁻¹, the Kd (mouse serum albumin [3]) was 10.2 nM and the koff (mouse serum albumin [3]) was 0.00231 s⁻¹. For the same binder, the Kd (protein A) was 2.84 nM, the koff (protein A) was 0.0002 s⁻¹ and the “Ratio of MSA-KD to HSA-KD” value (mouse serum albumin [4]) was 1.23.

B12: CNG-HSA-112 (VHH)
VHH: B11 VHH with V5L, S30P, E65K, S75A, N77T, A88P, L102V, K103S, Q104K, Q107R
Work on B12 yielded a Kd (human serum albumin) of 8.45 nM, a koff (human serum albumin) of 0.00136 s⁻¹ and a Kd (cynomolgus serum albumin) of 7.43 nM. For the same binder, the koff (cynomolgus serum albumin) was 0.00115 s⁻¹, the Kd (mouse serum albumin [3]) was 66.7 nM and the koff (mouse serum albumin [3]) was 0.013 s⁻¹. For the same binder, the Kd (protein A) was 3.44 nM, the koff (protein A) was 0.000375 s⁻¹ and the “Ratio of MSA-KD to HSA-KD” value (mouse serum albumin [4]) was 7.9.

B13: CNG-HSA-113 (VHH)
VHH: B11 VHH with K1G, V5L, S54T, E65K, A88P, K103R, Q104Y
B13 was tested, and the Kd (human serum albumin) was 15.4 nM, the koff (human serum albumin) was 0.00214 s⁻¹ and the Kd (cynomolgus serum albumin) was 12.1 nM. It also gave a koff (cynomolgus serum albumin) of 0.0017 s⁻¹, a Kd (mouse serum albumin [3]) of 52 nM and a koff (mouse serum albumin [3]) of 0.0101 s⁻¹. The Kd (protein A) was 1.7 nM, the koff (protein A) was 0.0002 s⁻¹ and the “Ratio of MSA-KD to HSA-KD” value (mouse serum albumin [4]) was 3.38.

B14: CNG-HSA-116 (VHH)
VHH: B11 VHH with L45P, E65K, K103R, Q104A
With B14 the Kd (human serum albumin) was 4.65 nM, the koff (human serum albumin) was 0.000699 s⁻¹ and the Kd (cynomolgus serum albumin) was 3.85 nM. The koff (cynomolgus serum albumin) was 0.000597 s⁻¹, the Kd (mouse serum albumin [3]) was 4.56 nM and the koff (mouse serum albumin [3]) was 0.00108 s⁻¹. The Kd (protein A) was 1.75 nM, the koff (protein A) was 0.0002 s⁻¹ and the “Ratio of MSA-KD to HSA-KD” value (mouse serum albumin [4]) was 0.98.

B15: CNG-HSA-102 (VHH)
VHH: B11 VHH with V5L, E65R, A88P, K103S, Q104P
For B15, the Kd (human serum albumin) was 4.89 nM, the koff (human serum albumin) was 0.000748 s⁻¹ and the Kd (cynomolgus serum albumin) was 3.65 nM. The koff (cynomolgus serum albumin) was 0.000568 s⁻¹, the Kd (mouse serum albumin [3]) was 41.4 nM and the koff (mouse serum albumin [3]) was 0.00738 s⁻¹. For the same binder, the Kd (protein A) was 1.7 nM, the koff (protein A) was 0.0002 s⁻¹ and the “Ratio of MSA-KD to HSA-KD” value (mouse serum albumin [4]) was 8.46.

B16: SEQ ID NO 9 (scFv)
scFv: QVQLVQSGAEVKKPGASVKVSCKASGYTFTDYIMHWVRQAPGQGLEWMGYINPYNDGSKYTEKFQGRVTMTSDTSISTAYMELSRLRSDDTAVYYCARGTYYYGPQLFDYWGQGTTVTVSSGGGGSGGGGSGGGGSDIVMTQTPLSLSVTPGQPASISCKSSQSLETSTGTTYLNWYLQKPGQSPQLLIYRVSKRFSGVPDRFSGSGSGTDFTLKISRVEAEDVGVYYCLQLLEDPYTFGQGTKLEIK
notes: its limits are my reading; also called anti-CD19 scFv of tAb0027 to tAb0032
B16 gave a Kd [5] of 7 nM and a Kd [6] of 5 nM.

B17: SEQ ID NO 18 (scFv)
scFv: QVQLQESGPGLVKPSQTLSLTCTVSGGSISTSGMGVGWIRQHPGKGLEWIGHIWWDDDKRYNPALKSRVTISVDTSKNQFSLKLSSVTAADTAVYYCARMELWSYYFDYWGQGTLVTVSSGGGGSGGGGSGGGGSEIVLTQSPATLSLSPGERATLSCSASSSVSYMHWYQQKPGQAPRLLIYDTSKLASGIPARFSGSGSGTDFTLTISSLEPEDFAVYYCFQGSVYPFTFGQGTKLEIKR
notes: its limits are my reading; also called anti-CD19 scFv of tAb0033 to tAb0038
Work on B17 yielded a Kd [5] of 11 nM and a Kd [6] of 15 nM.

B18: CNG-CD3-2 scFv construct (scFv)
scFv: DIVMTQSPDSLAVSLGERATINCKSSQSLLNARTGKNYLAWYQQKPGQPPKLLIYWASTRESGVPDRFSGSGSGTDFTLTISSLQAEDVAVYYCKQSYSRRTFGGGTKVEIKGGGGSGGGGSGGGGSGGGGSQVQLVQSGAEVKKPGASVKVSCKASGFNIKDYYMHWVRQAPGQRLEWMGWIDLENANTIYDAKFQGRVTITRDTSASTAYMELSSLRSEDTAVYYCARDQYGRYFYDVWGQGTLVTVSS
For B18, the Kd (human CD3 [7]) was 27 nM and the Kd (human CD3 [8]) was 16 nM.

B19: CNG-CD3-3 scFv construct (scFv)
scFv: B18 scFv with R100L, N187E, A188G, Q232A
With B19 the Kd (human CD3 [7]) was 54 nM and the Kd (human CD3 [8]) was 26 nM.
